B1: CPOX (parent)
chain: HAPTIHFNYRYFEVEEADGNKQWW

Variants of: B1
Experiment: protein stability index of a GFP-peptide fusion (GPS, HEK-293T) (PSI 1-6); higher = more stable
Conditions: c terminus: a fixed tail appended
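Note: lentivirally expressed fusions sorted by FACS into six bins by GFP to DsRed ratio, PSI derived from sequencing read proportions per bin multiplied by bin number.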

Variant | protein stability index
HAPTIIFNYRYFEVEEADGNKQWW | 2.34
HAPTIYFNYRYFEVEEADGNKQWW | 2.68
HAPTIDFNYRYFEVEEADGNKQWW | 2.92
HAPTIHFNYRYFEVEEADGNKQHW | 3.06
HAPTIHFNYRYFEVEEADGNKQNW | 3.71
HAPTIHFNYRYFEVEEADGNKQLW | 2.73
HAPTIHFNYRYFEVEEADGNKQRW | 3.03
HAPTIHFNYRYFEVEEADGNKQDW | 4.27
HAPTIHFNYRYFEVEEADGNKQPW | 3.34
HAPTIHFNYRYFEVEEADGNKQGW | 2.8
AAPTIHFNYRYFEVEEADGNKQWW | 2.46
KAPTIHFNYRYFEVEEADGNKQWW | 2.37
GAPTIHFNYRYFEVEEADGNKQWW | 3.62
LAPTIHFNYRYFEVEEADGNKQWW | 1.92
EAPTIHFNYRYFEVEEADGNKQWW | 2.42
NAPTIHFNYRYFEVEEADGNKQWW | 2.54
DAPTIHFNYRYFEVEEADGNKQWW | 1.84
VAPTIHFNYRYFEVEEADGNKQWW | 2.69
MAPTIHFNYRYFEVEEADGNKQWW | 2.15
HAPTIHFNYRYFEVEEADGNRQWW | 2.43
HAPTIHFNYRYFEVEEADGNQQWW | 2.67
HAPTIHFNYRYFEVEEADGNGQWW | 2.44
HAPTIHFNYRYFEVEEADGNWQWW | 1.89
HAPTIHFNYRYFEVEEADGNTQWW | 1.53

Variant | protein stability index
HAPTIHFNYRYFEVEEADGNHQWW | 2.6
HAPTIHFNYRYFEVEEADGNYQWW | 1.95
HAPTIHFNYRYFEVEEADGNNQWW | 2.22
HAPTIHFNYRYFEVEYADGNKQWW | 1.37
HAPTIHFNYRYFEVEAADGNKQWW | 1.67
HAPTIHFNYRYFEVEMADGNKQWW | 2.81
HAPTIHFNYRYFEVEHADGNKQWW | 1.82
HAPTIHFNYRYFEVEDADGNKQWW | 2.13
HAPTIHFNYRYFEVEKADGNKQWW | 2.18
HAPTIHFNYRYFEVEQADGNKQWW | 2.39
HAPTIHFNYRYFEVECADGNKQWW | 1.67
HAPTIHFNYRYFEVENADGNKQWW | 1.83
HAPTIHFNYRYFEVEPADGNKQWW | 1.83
HCPTIHFNYRYFEVEEADGNKQWW | 1.99
HVPTIHFNYRYFEVEEADGNKQWW | 2.85
HGPTIHFNYRYFEVEEADGNKQWW | 2.43
HSPTIHFNYRYFEVEEADGNKQWW | 2.78
HIPTIHFNYRYFEVEEADGNKQWW | 1.73
HRPTIHFNYRYFEVEEADGNKQWW | 2.73
HAPTIHFNYRYFEVEEADGMKQWW | 1.32
HAPTIHFNYRYFEVEEADGFKQWW | 1.07
HAPTIHFNYRYFEVEEADGKKQWW | 3.29
HAPTIHFNYRYFEVEEADGLKQWW | 2.12
HAPTIHFNYRYFEVEEADGGKQWW | 2.38

Variant | protein stability index
HAPTIHFNYRYFEVEEADGRKQWW | 2.46
HAPTIHFNYRYFEVEEADGSKQWW | 2.08
HAPDIHFNYRYFEVEEADGNKQWW | 2.96
HAPNIHFNYRYFEVEEADGNKQWW | 2.63
HAPVIHFNYRYFEVEEADGNKQWW | 2.45
HAPLIHFNYRYFEVEEADGNKQWW | 2.31
HAPPIHFNYRYFEVEEADGNKQWW | 2.7
HAPMIHFNYRYFEVEEADGNKQWW | 1.97
HAPQIHFNYRYFEVEEADGNKQWW | 2.66
HAPRIHFNYRYFEVEEADGNKQWW | 1.8
HAPCIHFNYRYFEVEEADGNKQWW | 2.01
HAPTIHFNYRYFEVEEADGNKVWW | 1.9
HAPTIHFNYRYFEVEEADGNKPWW | 2.56
HAPTIHFNYRYFEVEEADGNKLWW | 2.01
HAPTIHFNYRYFEVEEADGNKGWW | 2.46
HAPTIHFNYRYFEVEEADGNKWWW | 2
HAPTIHFNYRYFEVEEADGNKEWW | 3.35
HAPTIHFNYRYFEVEEADGNKHWW | 2.03
HAPTIHFNYRYFEVEEADGNKTWW | 2.27
HAPTIHFRYRYFEVEEADGNKQWW | 2.83
HAPTIHFGYRYFEVEEADGNKQWW | 2.36
HAPTIHFPYRYFEVEEADGNKQWW | 2.69
HAPTIHFTYRYFEVEEADGNKQWW | 1.87
HAPTIHFVYRYFEVEEADGNKQWW | 1.57

Variant | protein stability index
HAPTIHFQYRYFEVEEADGNKQWW | 2.48
HAPTIHFWYRYFEVEEADGNKQWW | 1.52
HAPTIHFNYRFFEVEEADGNKQWW | 2.26
HAPTIHFNYRDFEVEEADGNKQWW | 3.12
HAPTIHFNYRMFEVEEADGNKQWW | 2.42
HAPTIHFNYRWFEVEEADGNKQWW | 2.79
HAPTIHFNYRSFEVEEADGNKQWW | 2.92
HAPTIHFNYREFEVEEADGNKQWW | 3.35
HAPTIHFNYRYFEVEEADGNKQWI | 3.35
HAPTIHFNYRYFEVEEADGNKQWT | 2.86
HAPTIHFNYRYFEVEEADGNKQWG | 2.81
HAPTIHFNYRYFEVEEADGNKQWL | 2.66
HAPTIHFNYRYFEVEEADGNKQWD | 3.82
HAPTIHFNYRYFEVEEADGNKQWQ | 2.34
HAPTIHFNYRYFEVEEADGNKQWS | 2.91
HAPTIHFNYRYFEVEEADGNKQWV | 3.1
HAPTIHFNYRYFEVEEADGNKQWF | 2.69
HAPTIHFNYRYFEVEEADGNKQWC | 2.63
HAPTIHFNYRYFEVEEKDGNKQWW | 2.9
HAPTIHFNYRYFEVEEVDGNKQWW | 1.9
HAPTIHFNYRYFEVEESDGNKQWW | 2.23
HAPTIHFNYRYFEVEENDGNKQWW | 3.19

— the supplement of paper PMC10567573
